How the values were obtained:
Assay type in all cases: cell-based, human
[1] = system: StopFluc luciferase reporter gene in HEK293FT cells; assay: luciferase-based HDR (Homology-directed repair) assay of Cas9 endonuclease activity
Description: For constructing a luciferase reporter for detecting Cas9 endonuclease activity, the sequence encoding firefly luciferase (Fluc) was amplified from pGL4.31 vector (Promega). The firefly luciferase with an in-flamed stop codon (StopFluc) was produced by an overlapping PCR extension method. The primer (5′-[…]-3′: SEQ ID No: 40) was used for PCR. The Stop-Fluc construct was inserted into the HindII-XhoI site of pcDNA 3.1/V 5-HisA having the CMV promoter. A luciferase donor vector was constructed by inserting the reverse firefly luciferase sequence into the XhoI and HindIII site of the bacterial expression pCold-I vector (Clontech), and was used as donor DNA.
HEK293T cells (American Type Culture Collection: ATCC) were cultured at 37° C. under 5% CO2 in Dulbecco's Modified Eagle Medium (DMEM: Thermo Fisher Scientific) supplemented with 10% fetal bovine serum (FBS: Thermo Fisher Scientific), 100 units/ml of penicillin and 100 μg/ml of streptomycin (Thermo Fisher Scientific) and 2 mM GlutaMAX (Thermo Fisher Scientific).
For luciferase assay, HEK 293 cells were plated at 25,000 cells per well on a 96-well flat clear-bottom microplate (Greiner Bio-One), and were then cultured for 24 hours at 37° C. in 5% CO2. The cells were transfected with cDNAs encoding destabilized Cas9 or an empty vector (negative control) along with the luciferase reporter (StopFluc), donor DNA (Fluc) and Cas9 encoding gRNA, using Lipofectamine 3000 (Thermo Fisher Scientific) at 37° C. The total amount of DNA was 50 ng per well. The transfection ratio of the destabilized Cas9, the luciferase reporter, the donor DNA, and the gRNA was set to be equal (1:1:1:1). […] Bioluminescence measurement was performed for 1 second per well at room temperature using a Centro XS^3 LB 960 plate-reading luminometer (Berthold Technologies).
Full-length Cas9 was used as a positive control. […] Bioluminescence measurement was performed for 1 second per well at room temperature using a Centro XS^3 LB 960 plate-reading luminometer (Berthold Technologies).

[2] = system: FRT sites (Floxed (FRT)-STOP Fluc reporter) in HEK293 cells; assay: luciferase assay of Flp-FRT DNA recombination in HEK293 cells; details: 5 ng plasmid, 24 or 48 hours
Method: (§1) For constructing the luciferase reporters detecting for the activities of Flp-FRT recombinase, VCre-Vlox recombinase and Dre-rox recombinase, the FRT site ([…]: SEQ ID No: 37), the Vlox site ([…]: SEQ ID No: 38), the rox site ([…]: SEQ ID No: 39), were inserted into HindIII and KpnI sites and ClaI and EcoRI sites in the pcDNA3.1 (+) vector of the luciferase reporter (of loxP-stop-loxP-Fluc).
(§2) For luciferase assay, HEK 293 cells were plated at 25,000 cells per well on a 96-well flat white microplate (Thermo Fisher Scientific), and were then cultured for 24 hours at 37° C. in 5% CO2. The cells were transfected with cDNAs encoding destabilized Cre along with the luciferase reporter (loxP-stop-loxP Fluc), using X-tremeGENE9 reagent (Merck Millipore) at 37° C. The total amount of DNA was 50 ng per well. Twenty-four hours after the transfection, TMP or DMSO was added into the cells, and the cells were further cultured for 24 hours or 48 hours. Just before the luciferase assay, the medium was replaced with Hanks' balanced salt solution (HBSS) (Thermo Fisher Scientific) containing 0.2 mM D-luciferin potassium salt. Bioluminescence measurement was performed for 1 second per well at room temperature using a Centro XS^3 LB 960 plate-reading luminometer (Berthold Technologies).

[3] = system: Vlox sites (Floxed (Vlox)-STOP Fluc reporter) in HEK293 cells; assay: luciferase assay of VCre-Vlox DNA recombination in HEK293 cells; details: 5 ng plasmid, TMP 10 nM or 500 nM or DMSO, 24 or 48 hours
Method: as §1, §2

For “SPEED-Cas9: split spCas9 (a.a. 2-713 and 714-1,368) tagged with NZ/CZ leucine zippers and DD sequences, joined via P2A; SEQ ID No: 28”, the “background endonuclease activity in the absence of TMP” value ([1]; 12.5 ng plasmid, DMSO, 48 hours) was “extremely low background level of endonuclease activity, comparable to that of the negative control group using the pcDNA3.1 empty vector plasmid”, the TMP-dependent endonuclease activity ([1]; 12.5 ng plasmid, TMP 500 nM, 48 hours) was “extremely high TMP-dependent endonuclease activity” and the “TMP-dependent endonuclease activity compared with full-length Cas9” value ([1]; TMP 500 nM (FIGS. 9d and e)) was “comparable to that of full-length Cas9”.

B1: SPEED-Flp: split Flp (a.a. 2-374 and 375-423), single DD on the N-terminal and C-terminal sides; SEQ ID No: 16 (protein, listed as Saccharomyces cerevisiae)
chain: MVSKYPYDVPDYARSGGSGGMISLIAALAVDYVIGMENAMPWNLPADLAWFKRNTLNKPVIMGRHTWESIGRPLPGRKNIILSSQPSTDDRVTWVKSVDEAIAACGDVPEIMVIGGGRVIEQFLPKAQKLYLTHIDAEVEGDTHFPDYEPDDWESVFSEFHDADAQNSHSYCFEILERRGGSGGSGGKLVPKKKRKVGGSQFDILCKTPPKVLVRQFVERFERPSGEKIASCAAELTYLCWMITHNGTAIKRATFMSYNTIISNSLSFDIVNKSLQFKYKTQKATILEASLKKLIPAWEFTIIPYNGQKHQSDITDIVSSLQLQFESSEEADKGNSHSKKMLKALLSEGESIWEITEKILNSFEYTSRFTKTKTLYQFLFLATFINCGRFSDIKNVDPKSFKLVQNKYLGVIIQCLVTETKTSVSRHIYFFSARGRIDPLVYLDEFLRNSEPVLKRVNRTGNSSSNKQEYQLLKDNLVRSYNKALKKNAPYPIFAIKNGPKSHIGRHLMTSFLSMKGLTELTNVVGNWSDKRASAVARTTYTHQITAIPDHYFALVSRYYAYDPISKEMIALGSGSGATNFSLLKQAGDVEENPGPLEKDETNPIEEWQHIEQLKGSAEGSIRYPAWNGIISQEVLDYLSSYINRRIGGSGGSGGMISLIAALAVDYVIGMENAMPWNLPADLAWFKRNTLNKPVIMGRHTWESIGRPLPGRKNIILSSQPSTDDRVTWVKSVDEAIAACGDVPEIMVIGGGRVIEQFLPKAQKLYLTHIDAEVEGDTHFPDYEPDDWESVFSEFHDADAQNSHSYCFEILERR
modifications: MISC_FEATURE - HAtag; DOMAIN 21..179 Degradation Domain; SIGNAL 190..197 Nuclear Localization Signal; MISC_FEATURE - N-terminal side of Flp; MISC_FEATURE - P2A; MISC_FEATURE - C-terminal side of Flp; DOMAIN 656..814 Degradation Domain
For B1, the “background DNA recombination activity in the absence of TMP” value [2] was “extremely low background level of DNA recombination activity comparable to a negative control group using the pcDNA3.1 empty vector plasmid” and the “TMP-dependent DNA recombination activity” value ([2]; TMP 10 nM or 500 nM) was “extremely high TMP-dependent DNA recombination activity”.

B2: DD-Flp: Flp tagged with single DD; SEQ ID No: 15 (protein, listed as Saccharomyces cerevisiae)
chain: MVSKYPYDVPDYARSGGSGGMISLIAALAVDYVIGMENAMPWNLPADLAWFKRNTLNKPVIMGRHTWESIGRPLPGRKNIILSSQPSTDDRVTWVKSVDEAIAACGDVPEIMVIGGGRVIEQFLPKAQKLYLTHIDAEVEGDTHFPDYEPDDWESVFSEFHDADAQNSHSYCFEILERRGGSGGSGGKLVPKKKRKVGGSQFDILCKTPPKVLVRQFVERFERPSGEKIASCAAELTYLCWMITHNGTAIKRATFMSYNTIISNSLSFDIVNKSLQFKYKTQKATILEASLKKLIPAWEFTIIPYNGQKHQSDITDIVSSLQLQFESSEEADKGNSHSKKMLKALLSEGESIWEITEKILNSFEYTSRFTKTKTLYQFLFLATFINCGRFSDIKNVDPKSFKLVQNKYLGVIIQCLVTETKTSVSRHIYFFSARGRIDPLVYLDEFLRNSEPVLKRVNRTGNSSSNKQEYQLLKDNLVRSYNKALKKNAPYPIFAIKNGPKSHIGRHLMTSFLSMKGLTELTNVVGNWSDKRASAVARTTYTHQITAIPDHYFALVSRYYAYDPISKEMIALKDETNPIEEWQHIEQLKGSAEGSIRYPAWNGIISQEVLDYLSSYINRRI
modifications: MISC_FEATURE - HAtag; DOMAIN 21..179 Degradation Domain; MISC_FEATURE - Flp
In the case of B2, the “background DNA recombination activity in the absence of TMP” value [2] is reported as “high background DNA recombination activity comparable to full-length Flp”.

B3: SPEED-VCre: split VCre (a.a. 2-277 and 278-380), single DD on the N-terminal and C-terminal sides; SEQ ID No: 20 (protein, listed as Vibrio parahaemolyticus)
chain: MVSKYPYDVPDYARSGGSGGMISLIAALAVDYVIGMENAMPWNLPADLAWFKRNTLNKPVIMGRHTWESIGRPLPGRKNIILSSQPSTDDRVTWVKSVDEAIAACGDVPEIMVIGGGRVIEQFLPKAQKLYLTHIDAEVEGDTHFPDYEPDDWESVFSEFHDADAQNSHSYCFEILERRGGSGGSGGKLVPKKKRKVGGIENQLSLLGDFSGVRPDDVKTAIQAAQKKGINVAENEQFKAAFEHLLNEFKKREERYSPNTLRRLESAWTCFVDWCLANHRHSLPATPDTVEAFFIERAEELHRNTLSVYRWAISRVHRVAGCPDPCLDIYVEDRLKAIARKKVREGEAVKQASPFNEQHLLKLTSLWYRSDKLLLRRNLALLAVAYESMLRASELANIRVSDMELAGDGTAILTIPITKTNHSGEPDTCILSQDVVSLLMDYTEAGKLDMSSDGFLFVGVSKHNTCIKPKKDKQTGSGSGATNFSLLKQAGDVEENPGPLEGEVLHKPITTKTVEGVFYSAWETLDLGRQGVKPFTAHSARVGAAQDLLKKGYNTLQIQQSGRWSSGAMVARYGRAILARDGAMAHSRVKTRSAPMQWGKDEKDGGSGGSGGMISLIAALAVDYVIGMENAMPWNLPADLAWFKRNTLNKPVIMGRHTWESIGRPLPGRKNIILSSQPSTDDRVTWVKSVDEAIAACGDVPEIMVIGGGRVIEQFLPKAQKLYLTHIDAEVEGDTHFPDYEPDDWESVFSEFHDADAQNSHSYCFEILERR
modifications: HAtag; DOMAIN 21..179 Degradation Domain; SIGNAL 190..197 Nuclear Localization Signal; MISC_FEATURE - N-terminal side of VCre; MISC_FEATURE - P2A; MISC_FEATURE - C-terminal side of VCre; DOMAIN 613..771 Degradation Domain
B3 was tested, and the “background and TMP-dependent DNA recombination activity” value [3] was “results similar to those of SPEED-Cre”.

Reference: patent US20240409960A1, “METHOD FOR CONTROLLING PROTEIN FUNCTION” (The University of Tokyo, priority 2021, published 2024)
